According to patent publication US20250115669A1, “FGFR1/KLB Targeting Agonistic Antigen-Binding Proteins and Conjugates Thereof with GLP-1R Agonistic Peptides” (SANOFI, priority 2020, published 2025):
Residue numbers refer to the chain shown, from its start. Names may count otherwise.

T1: human beta-Klotho (Homo sapiens, UniProt Q86Z14)
T1 sequence (Q86Z14 1-1044): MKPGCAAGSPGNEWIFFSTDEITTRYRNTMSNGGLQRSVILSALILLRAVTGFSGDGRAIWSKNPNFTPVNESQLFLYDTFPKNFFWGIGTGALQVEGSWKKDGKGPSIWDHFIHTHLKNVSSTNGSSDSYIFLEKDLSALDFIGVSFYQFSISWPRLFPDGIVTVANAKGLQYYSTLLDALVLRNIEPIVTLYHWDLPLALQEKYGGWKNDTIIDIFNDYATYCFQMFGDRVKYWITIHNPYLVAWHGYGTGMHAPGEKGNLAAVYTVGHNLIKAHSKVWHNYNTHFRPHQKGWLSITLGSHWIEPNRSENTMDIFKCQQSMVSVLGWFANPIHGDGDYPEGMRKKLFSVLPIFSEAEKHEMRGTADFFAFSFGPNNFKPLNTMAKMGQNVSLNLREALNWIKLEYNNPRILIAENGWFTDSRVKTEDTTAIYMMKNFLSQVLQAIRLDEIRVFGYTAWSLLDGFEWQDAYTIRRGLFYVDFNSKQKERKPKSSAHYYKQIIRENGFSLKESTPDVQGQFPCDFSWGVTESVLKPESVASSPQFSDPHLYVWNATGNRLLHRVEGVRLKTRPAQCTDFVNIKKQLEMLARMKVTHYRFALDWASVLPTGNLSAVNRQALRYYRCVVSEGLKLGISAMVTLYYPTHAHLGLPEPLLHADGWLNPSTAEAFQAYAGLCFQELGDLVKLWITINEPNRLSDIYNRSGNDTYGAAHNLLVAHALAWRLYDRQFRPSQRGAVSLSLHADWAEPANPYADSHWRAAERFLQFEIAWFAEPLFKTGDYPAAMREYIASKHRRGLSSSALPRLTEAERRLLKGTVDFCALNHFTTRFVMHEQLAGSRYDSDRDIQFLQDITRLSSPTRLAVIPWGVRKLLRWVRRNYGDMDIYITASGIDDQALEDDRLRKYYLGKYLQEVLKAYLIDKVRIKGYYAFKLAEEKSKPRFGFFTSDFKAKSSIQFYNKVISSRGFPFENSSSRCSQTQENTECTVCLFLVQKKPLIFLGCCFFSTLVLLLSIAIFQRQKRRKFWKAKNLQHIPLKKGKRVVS

B1: Ab0357: IgG4 PE; 16H7 VL (N25S, D49E, D50A, D91E, N93S); 16H7 VH (M34V, I83T, D109E) (antibody)
VH: QVTLKESGPVLVKPTETLTLTCTVSGFSLNNARVGVSWIRQPPGKALEWLAHIFSNDEKSYSTSLKSRLTISKDTSKSQVVLTMTNMDPVDTATYYCARSVVTGGYYYEGMDVWGQGTTVTVSS
light: SYVLTQPPSVSVAPGQTARITCGGSNIGSESVHWYQQKPGQAPVLVVYEASDRPSGIPERFSGSNSGNTATLTISRVEAGDEADYYCQVWEGSSDHVVFGGGTKLTVLGQPKANPTVTLFPPSSEELQANKATLVCLISDFYPGAVTVAWKADGSPVKAGVETTKPSKQSNNKYAASSYLSLTPEQWKSHRSYSCQVTHEGSTVEKTVAPTECS
B2: Ab0359: IgG4 PE; 16H7 VL (N25S, D49E, D50H, D91A, N93S); 16H7 VH (M34V, I83T, D109E) (antibody)
VH: B1 VH
light: B1 light with A50H, E91A
B3: Ab0311: IgG4 PE; 16H7 VL (D49Y, D50E, N93E); 16H7 VH (M34V, I83T, D109E) (antibody)
VH: B1 VH
light: B1 light with S25N, E49Y, A50E, E91D, S93E
B4: Ab0362: IgG4 PE; 16H7 VL (N25S, D49T, D50E, D91A, N93S); 16H7 VH (M34V, I83T, D109E) (antibody)
VH: B1 VH
light: B1 light with E49T, A50E, E91A
B5: Ab0304: IgG4 PE; 16H7 VL (D49Y, D50E, D91T); 16H7 VH (M34V, I83T, D109E) (antibody)
VH: B1 VH
light: B1 light with S25N, E49Y, A50E, E91T, S93N
B6: Ab0365: IgG4 PE; 16H7 VL (N25A, D49T, D50E, D91A, N93S); 16H7 VH (M34V, I83T, D109E) (antibody)
VH: B1 VH
light: B1 light with S25A, E49T, A50E, E91A
B7: Ab0316: IgG4 PE; 16H7 VL (N25S, D49Y, D91T, N93E); 16H7 VH (M34V, I83T, D109E) (antibody)
VH: B1 VH
light: B1 light with E49Y, A50D, E91T, S93E
B8: Ab0312: IgG4 PE; 16H7 VL (N25S, D49Y, D50E, N93E); 16H7 VH (M34V, I83T, D109E) (antibody)
VH: B1 VH
light: B1 light with E49Y, A50E, E91D, S93E
B9: Ab0360: IgG4 PE; 16H7 VL (N25S, D49E, D50H, D91E, N93S); 16H7 VH (M34V, I83T, D109E) (antibody)
VH: B1 VH
light: B1 light with A50H
B10: Ab0308: IgG4 PE; 16H7 VL (N25S, D49Y, N93E); 16H7 VH (M34V, I83T, D109E) (antibody)
VH: B1 VH
light: B1 light with E49Y, A50D, E91D, S93E
B11: Ab0363: IgG4 PE; 16H7 VL (N25A, D49S, D50A, D91A, N93A); 16H7 VH (M34V, I83T, D109E) (antibody)
VH: B1 VH
light: B1 light with S25A, E49S, E91A, S93A
B12: Ab0358: IgG4 PE; 16H7 VL (N25S, D49E, D50A, D91H, N93S); 16H7 VH (M34V, I83T, D109E) (antibody)
VH: B1 VH
light: B1 light with E91H
B13: Ab0305: IgG4 PE; 16H7 VL (N25S, D49Y, D50E, D91T); 16H7 VH (M34V, I83T, D109E) (antibody)
VH: B1 VH
light: B1 light with E49Y, A50E, E91T, S93N
B14: Ab0315: IgG4 PE; 16H7 VL (D49Y, D91T, N93E); 16H7 VH (M34V, I83T, D109E) (antibody)
VH: B1 VH
light: B1 light with S25N, E49Y, A50D, E91T, S93E
B15: Ab0310: IgG4 PE; 16H7 VL (N25S, D50E, N93E); 16H7 VH (M34V, I83T, D109E) (antibody)
VH: B1 VH
light: B1 light with E49D, A50E, E91D, S93E
B16: Ab0303: IgG4 PE; 16H7 VL (N25S, D50E, D91T); 16H7 VH (M34V, I83T, D109E) (antibody)
VH: B1 VH
light: B1 light with E49D, A50E, E91T, S93N
B17: Ab0364: IgG4 PE; 16H7 VL (N25A, D49E, D50E, D91E, N93S); 16H7 VH (M34V, I83T, D109E) (antibody)
VH: B1 VH
light: B1 light with S25A, A50E
B18: Ab0298: IgG4 PE; 16H7 VL (N25S, D49Y, D50E); 16H7 VH (M34V, I83T, D109E) (antibody)
VH: B1 VH
light: B1 light with E49Y, A50E, E91D, S93N
B19: Ab0301: IgG4 PE; 16H7 VL (N25S, D49Y, D91T); 16H7 VH (M34V, I83T, D109E) (antibody)
VH: B1 VH
light: B1 light with E49Y, A50D, E91T, S93N
B20: Ab0361: IgG4 PE; 16H7 VL (N25S, D49E, D50S, D91E, N93S); 16H7 VH (M34V, I83T, D109E) (antibody)
VH: B1 VH
light: B1 light with A50S

What follows are molecules tested against T1, human beta-Klotho (assay: SPR off-rate screening of antibody mutants (human beta-Klotho captured by anti-His antibody)). Conditions: mean, n=3.
Type: binding
Method in brief: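 His-tagged beta-Klotho was captured via an anti-His antibody amine-coupled to a CM5 chip, and antibody mutants were injected as analytes at 50 nmol/L. Association ran 240 sec, dissociation 300 sec; off-rates (kd) came from single exponential fitting.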

Molecule | koff human KLB
B1 | 0.00185 s⁻¹
B2 | invalid fit
B3 | 0.0013 s⁻¹
B4 | invalid fit
B5 | invalid fit
B6 | invalid fit
B7 | invalid fit
B8 | 0.0005302 s⁻¹
B9 | 0.00192 s⁻¹
B10 | 0.0013 s⁻¹
B11 | invalid fit
B12 | 0.0004541 s⁻¹
B13 | invalid fit
B14 | invalid fit
B15 | 0.00116 s⁻¹
B16 | invalid fit
B17 | 0.00169 s⁻¹
B18 | 0.0016 s⁻¹
B19 | invalid fit
B20 | 0.00163 s⁻¹
